Assay results reported in doi:10.1101/722512 (bioRxiv, 2019).

Molecular target: the molecule itself
Experiment: native MS

B1: Erwinia ligand-gated ion channel (ELIC), wild type (natural protein)
chain: APADNAADARPVDVSVSIFINKIYGVNTLEQTYKVDGYIVAQWTGKPRKTPGDKPLIVENTQIERWINNGLWVPALEFINVVGSPDTGNKRLMLFPDGRVIYNARFLGSFSNDMDFRLFPFDRQQFVLELEPFSYNNQQLRFSDIQVYTENIDNEEIDEWWIRKASTHISDIRYDHLSSVQPNQNEFSRITVRIDAVRNPSYYLWSFILPLGLIIAASWSVFWLESFSERLQTSFTLMLTVVAYAFYTSNILPRLPYTTVIDQMIIAGYGSIFAAILLIIFAHHRQAMGVEDDLLIQRCRLAFPLGFLAIGCVLVIRGITL
With B1 the “stoichiometry N” value was 5.
